Test [1] concerns the target T1, FcγRIIIAV158 extracellular domain, His tag (human, UniProt P08637 17-208).
T1 construct: extracellular domain; also called FcγRIIIAV58
The test is described as follows: ELISA, FcγR-His coated, preformed immune complex of the mAb. How it is done:
(§1) The extracellular domains of FcγRs were fused to C-terminal His tags as described in previous sections. Recombinant proteins were expressed in 293-F cells by transient transfection and purified using Ni-Sepharose column followed by gel filtration column as described. 2-5 μg/mL of FcγRs were coated on Nunc MaxiSorp ELISA plates (Cat. No. 442404, Nunc, Thermo Fisher) except FcγRIIB and FcγRIIIB, Ni-chelate plates were used (Cat. No. 15242, Pierce, Thermo Fisher). After washing and blocking of the wells, a preformed immune-complex was added to each well and incubated at room temperature for 1-2 hours. […] After washing the plate four times, binding signals were detected by chemiluminescence using Immobilon Chemiluminescence Substrate A/B (Cat. No. WBKLS0500, Millipore).
Background: In an ELISA, binding on a coated surface is turned into a signal by an enzyme label.

Test [2] addresses T2, FcγRIIAH131 extracellular domain, His tag (human, UniProt P12318 34-217).
T2 construct: extracellular domain
T2 sequence (looked up): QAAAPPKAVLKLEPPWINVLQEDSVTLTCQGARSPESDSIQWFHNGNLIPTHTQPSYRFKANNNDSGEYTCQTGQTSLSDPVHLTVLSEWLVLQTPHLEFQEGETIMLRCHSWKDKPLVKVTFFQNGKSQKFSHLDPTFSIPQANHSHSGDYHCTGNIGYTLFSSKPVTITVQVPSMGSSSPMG
Described as above. How it is done: as §1

The target in test [3] is T3, FcγRIIIAF158 extracellular domain, His tag (human, UniProt P08637 17-208).
T3 construct: extracellular domain
T3 sequence (P08637 17-208): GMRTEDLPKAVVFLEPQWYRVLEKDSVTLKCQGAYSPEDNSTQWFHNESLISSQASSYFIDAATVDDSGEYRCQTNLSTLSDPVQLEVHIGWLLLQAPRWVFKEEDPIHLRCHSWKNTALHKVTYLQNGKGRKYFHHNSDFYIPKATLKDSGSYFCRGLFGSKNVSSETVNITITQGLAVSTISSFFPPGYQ
The test is described as above. How it is done: as §1

In test [4] the target is T4, FcγRI extracellular domain, His tag (human, UniProt P12314 16-292).
T4 construct: extracellular domain
T4 sequence (P12314 16-292): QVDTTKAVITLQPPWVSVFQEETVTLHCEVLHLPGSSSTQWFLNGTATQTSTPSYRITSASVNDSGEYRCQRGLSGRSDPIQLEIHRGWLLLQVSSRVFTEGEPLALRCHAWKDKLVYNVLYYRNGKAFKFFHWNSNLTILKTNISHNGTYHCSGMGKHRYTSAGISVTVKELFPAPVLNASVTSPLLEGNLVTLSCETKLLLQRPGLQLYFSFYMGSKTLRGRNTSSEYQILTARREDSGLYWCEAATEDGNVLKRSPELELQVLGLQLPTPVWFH
The description is as above. As for the experimental part: as §1

Test [5] addresses T5, FcγRIIAR131 extracellular domain, His tag (human, UniProt P12318 34-217).
T5 construct: extracellular domain
T5 sequence (looked up): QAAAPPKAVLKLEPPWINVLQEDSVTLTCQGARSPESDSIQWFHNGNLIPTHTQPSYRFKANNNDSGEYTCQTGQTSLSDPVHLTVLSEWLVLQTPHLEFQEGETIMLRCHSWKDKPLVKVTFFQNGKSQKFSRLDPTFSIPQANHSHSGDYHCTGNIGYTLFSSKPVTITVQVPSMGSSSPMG
The description is as above. How it is done: as §1

For test [6], the target named is T6, human FcγRIIIAF158 expressed on HEK293 cells (human, UniProt P08637 17-254).
T6 construct: whole, on cells; Co-expressed with FcRγ subunit
T6 sequence (P08637 17-254): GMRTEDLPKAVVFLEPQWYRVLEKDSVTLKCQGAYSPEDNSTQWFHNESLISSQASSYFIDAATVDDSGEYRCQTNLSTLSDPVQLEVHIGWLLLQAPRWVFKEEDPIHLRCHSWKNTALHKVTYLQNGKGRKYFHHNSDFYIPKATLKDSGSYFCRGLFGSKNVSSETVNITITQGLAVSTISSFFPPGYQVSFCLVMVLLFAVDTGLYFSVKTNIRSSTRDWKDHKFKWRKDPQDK
The test is described as follows: FACS, 10 µg/mL mAb as immune complex with biotin-PD-L1/His and neutravidin on FcγR-expressing HEK293 cells. The text has this:
(§2) Such bindings are thought to be more relevant under physiological condition, as the binding strength between monomeric γFc and most of the FcγRs is very weak. Human immune system also takes advantage of this mechanism to avoid non-specific activation of FcγRs by monomeric IgG which are present at high levels in serum.
(In general: In flow cytometry, cells or beads pass a laser one at a time.)

Test [7] concerns the target T7, human FcγRIIAR131 expressed on HEK293 cells (human, UniProt P12318 34-317).
T7 construct: whole, on cells
T7 sequence (looked up): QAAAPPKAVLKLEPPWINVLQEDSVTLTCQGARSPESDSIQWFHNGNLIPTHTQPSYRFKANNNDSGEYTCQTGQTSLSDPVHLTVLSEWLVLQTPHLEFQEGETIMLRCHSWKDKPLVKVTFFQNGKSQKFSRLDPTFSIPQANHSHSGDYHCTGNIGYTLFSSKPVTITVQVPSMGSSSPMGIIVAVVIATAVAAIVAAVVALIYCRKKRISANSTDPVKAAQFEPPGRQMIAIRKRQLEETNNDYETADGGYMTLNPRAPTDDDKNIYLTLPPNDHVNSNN
The description is as above.
Text: as §2

Test [8] has as its target T8, human FcγRIIB expressed on HEK293 cells (human, UniProt P31994 43-310).
T8 construct: whole, on cells
T8 sequence (looked up): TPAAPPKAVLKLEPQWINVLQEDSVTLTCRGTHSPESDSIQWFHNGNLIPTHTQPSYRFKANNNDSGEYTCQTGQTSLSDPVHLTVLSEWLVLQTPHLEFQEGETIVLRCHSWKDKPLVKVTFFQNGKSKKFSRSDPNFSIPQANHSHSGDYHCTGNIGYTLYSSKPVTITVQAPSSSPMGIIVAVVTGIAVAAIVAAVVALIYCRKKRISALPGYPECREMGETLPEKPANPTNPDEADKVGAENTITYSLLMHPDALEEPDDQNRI
The test is described as above.
Text: as §2

Test [9] deals with T9, human FcγRI expressed on HEK293 cells (human, UniProt P12314 16-374).
T9 construct: whole, on cells; Co-expressed with FcRγ subunit
T9 sequence (P12314 16-374): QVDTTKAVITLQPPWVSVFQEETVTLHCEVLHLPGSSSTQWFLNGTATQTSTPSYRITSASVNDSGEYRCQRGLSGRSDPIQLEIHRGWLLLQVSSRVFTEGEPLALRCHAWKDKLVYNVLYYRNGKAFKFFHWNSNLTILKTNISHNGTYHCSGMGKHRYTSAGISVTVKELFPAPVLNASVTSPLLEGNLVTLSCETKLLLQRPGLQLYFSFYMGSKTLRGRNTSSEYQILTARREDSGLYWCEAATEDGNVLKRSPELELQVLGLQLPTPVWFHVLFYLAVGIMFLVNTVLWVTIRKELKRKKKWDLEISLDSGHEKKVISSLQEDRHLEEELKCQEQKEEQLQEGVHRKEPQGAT
Described as above.
Text: as §2

Test [10] concerns the target T10, human FcγRIIAH131 expressed on HEK293 cells (human, UniProt P12318 34-317).
T10 construct: whole, on cells
T10 sequence (looked up): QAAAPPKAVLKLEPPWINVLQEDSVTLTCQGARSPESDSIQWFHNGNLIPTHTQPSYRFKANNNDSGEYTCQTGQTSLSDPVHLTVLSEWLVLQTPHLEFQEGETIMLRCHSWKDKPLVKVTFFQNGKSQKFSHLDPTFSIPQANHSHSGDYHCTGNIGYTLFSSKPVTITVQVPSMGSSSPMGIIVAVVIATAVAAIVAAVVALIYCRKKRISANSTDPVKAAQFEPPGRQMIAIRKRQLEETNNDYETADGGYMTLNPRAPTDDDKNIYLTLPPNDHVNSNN
The description is as above.
Text: as §2

In test [11] the target is T2, FcγRIIAH131 extracellular domain, His …. The test is described as follows: ELISA, FcγR-His coated, preformed immune complex; normalized to hu333-4A2-IgG1wt. As for the experimental part: as §1
Test [12] addresses T3, FcγRIIIAF158 extracellular domain, His …. The description is as above. As for the experimental part:
as §1

T1 sequence (P08637 17-208 F176V limits assumed): as the sequence (P08637 17-208) above, with F160V counted along it

B1: hu333-4A2-IgG1wt (antibody)
heavy: not shown
VL: DIQMTQSPSSLSASVGDRVTITCKASQDVGIVVAWYQQKPGKAPKLLIYWASIRHTGVPSRFSGSGSGTEFTLTISSLQPDDFATYYCQQYSNYPLYTFGQGTKVEIK
notes: light chain constant region (kappa) not tied to an entry for this form
Regarding B1, the Chemiluminescence was 57800 in [1]; 54600 in [2]; 36400 in test [3]; 42700 in test [4]; 50200 in test [5]. Besides, the MFI in [6] was 74.2 MFI; in [7], 159 MFI; in test [8], 539 MFI; in test [9], 3260 MFI; in [10] it was 599 MFI. The Relative binding in test [11] and in test [12] was 100% each time.

B2: hu333-4B2-IgG1mc (antibody)
heavy: EVQLVESGGGLVQPGGSLRLSCAVSGFSLTSYGVHWVRQAPGKGLEWVAVIWAGGSTNYADSVKGRFTISKDTSKNTVYLQMNSLRAEDTAVYYCAKPYGTSAMDYWGQGTLVTVSSASTKGPSVFPLAPSSKSTSGGTAALGCLVKDYFPEPVTVSWNSGALTSGVHTFPAVLQSSGLYSLSSVVTVPSSSLGTQTYICNVNHKPSNTKVDKKVEPKSCDKTHTCPPCPAPPAAAPSVFLFPPKPKDTLMISRTPEVTCVVVDVSHEDPEVKFNWYVDGVEVHNAKTKPREEQYNSTYRVVSVLTVLHQDWLNGKEYKCKVSNKALAAPIEKTISKAKGQPREPQVYTLPPSRDELTKNQVSLTCLVKGFYPSDIAVEWESNGQPENNYKTTPPVLDSDGSFFLYSKLTVDKSRWQQGNVFSCSVMHEALHNHYTQKSLSLSPGK
light: DIQMTQSPSSLSASVGDRVTITCKASQDVGIVVAWYQQKPGKAPKLLIYWASIRHTGVPSRFSGSGSGTEFTLTISSLQPDDFATYYCQQYSNYPLYTFGQGTKVEIKRTVAAPSVFIFPPSDEQLKSGTASVVCLLNNFYPREAKVQWKVDNALQSGNSQESVTEQDSKDSTYSLSSTLTLSKADYEKHKVYACEVTHQGLSSPVTKSFNRGEC
B2: the MFI in test [6] was 6.81 MFI; in test [7] it was 5.28 MFI; in test [8], 5.03 MFI; in [9], 7.01 MFI; in test [10], 8.09 MFI.

B3: hu333-4A2-IgG1mc (antibody)
heavy: EVQLVESGGGLVQPGGSLRLSCAVSGFSLTSYGVHWVRQAPGKGLEWVAVIWAGGSTNYVDSVKGRFTISKDNAKNTVYLQMNSLRAEDTAVYYCAKPYGTSAMDYWGQGTLVTVSSASTKGPSVFPLAPSSKSTSGGTAALGCLVKDYFPEPVTVSWNSGALTSGVHTFPAVLQSSGLYSLSSVVTVPSSSLGTQTYICNVNHKPSNTKVDKKVEPKSCDKTHTCPPCPAPPAAAPSVFLFPPKPKDTLMISRTPEVTCVVVDVSHEDPEVKFNWYVDGVEVHNAKTKPREEQYNSTYRVVSVLTVLHQDWLNGKEYKCKVSNKALAAPIEKTISKAKGQPREPQVYTLPPSRDELTKNQVSLTCLVKGFYPSDIAVEWESNGQPENNYKTTPPVLDSDGSFFLYSKLTVDKSRWQQGNVFSCSVMHEALHNHYTQKSLSLSPGK
light: DIQMTQSPSSLSASVGDRVTITCKASQDVGIVVAWYQQKPGKAPKLLIYWASIRHTGVPSRFSGSGSGTEFTLTISSLQPDDFATYYCQQYSNYPLYTFGQGTKVEIKRTVAAPSVFIFPPSDEQLKSGTASVVCLLNNFYPREAKVQWKVDNALQSGNSQESVTEQDSKDSTYSLSSTLTLSKADYEKHKVYACEVTHQGLSSPVTKSFNRGEC
Consider B3, for which the MFI in test [6] was found to be 6.44 MFI; in [7] it was 5.38 MFI; in test [8], 5.05 MFI; in test [9], 7 MFI; in test [10] it was 7.53 MFI.

B4: hu333-4B2-IgG1mf (antibody)
heavy: EVQLVESGGGLVQPGGSLRLSCAVSGFSLTSYGVHWVRQAPGKGLEWVAVIWAGGSTNYADSVKGRFTISKDTSKNTVYLQMNSLRAEDTAVYYCAKPYGTSAMDYWGQGTLVTVSSASTKGPSVFPLAPSSKSTSGGTAALGCLVKDYFPEPVTVSWNSGALTSGVHTFPAVLQSSGLYSLSSVVTVPSSSLGTQTYICNVNHKPSNTKVDKKVEPKSCDKTHTCPPCPAPPAAGPSVFLFPPKPKDTLMISRTPEVTCVVVDVSHEDPEVKFNWYVDGVEVHNAKTKPREEQYNSTYRVVSVLTVLHQDWLNGKEYKCKVSNKALAAPIEKTISKAKGQPREPQVYTLPPSRDELTKNQVSLTCLVKGFYPSDIAVEWESNGQPENNYKTTPPVLDSDGSFFLYSKLTVDKSRWQQGNVFSCSVMHEALHNHYTQKSLSLSPGK
light: DIQMTQSPSSLSASVGDRVTITCKASQDVGIVVAWYQQKPGKAPKLLIYWASIRHTGVPSRFSGSGSGTEFTLTISSLQPDDFATYYCQQYSNYPLYTFGQGTKVEIKRTVAAPSVFIFPPSDEQLKSGTASVVCLLNNFYPREAKVQWKVDNALQSGNSQESVTEQDSKDSTYSLSSTLTLSKADYEKHKVYACEVTHQGLSSPVTKSFNRGEC
With B4, the MFI turned out to be 6.76 MFI in test [6]; 4.92 MFI in [7]; 5 MFI in [8]; 7.11 MFI in [9]; 7.27 MFI in [10].

(Values after US20180215825A1 (BEIGENE, published 2018).)
